# Measured values published in IntAct's records for PubMed 26977880.
# B1: Tumor necrosis factor ligand superfamily member 14 (Homo sapiens), O43557 (parent)
# chain: MEESVVRPSVFVVDGQTDIPFTRLGRSHRRQSCSVARVGLGLLLLLMGAGLAVQGWFLLQLHWRLGEMVTRLPDGPAGSWEQLIQERRSHEVNPAAHLTGANSSLTGSGGPLLWETQLGLAFLRGLSYHDGALVVTKAGYYYIYSKVQLGGVGCPLGLASTITHGLYKRTPRYPEELELLVSQQSPCGRATSSSRVWWDSSFLGGVVHLEAGEKVVVRVLDERLVRLRDGTRSYFGAFMV
# Variants of: B1
# Conditions: with tnr3_mouse Ltbr
row,Variant,effect of a mutation on the interaction
1,MEESVVRPSVFVVDGQTDIPFTRLGRSHRRQSCSVARVGLGLLLLLMGAGLAVQGWFLLQLHWRLGEMVTRLPDGPAGSWEQLIQERRSHEVNPAAHLTGANSSLTGSGGPLLWETQLGLAFLRGLSYHDGALVVTKTGYYYIYSKVQLGGVGCPLGLAGTITHGLYKRTPRYPEELELLVSQQSPCGRATSSSRVWWDSSFLGGVVHLEAGEKVVVRVLGKRLVRLRDGTRSYFGAFMV [A138T;S160G;D221G;E222K],causing an interaction
